Substitutions are numbered along the chain they refer to. In names and notes the source's numbering stands.
Tests used:
[1] = molecular target: T1, human FcγRIIaH extracellular domain, His-tagged (human, UniProt P12318 34-217); experiment: SPR (Biacore), 25C, FcgR bound per antibody captured
T1 construct: also called human FcgRIIaH; FcγRIIa type H
T1 sequence: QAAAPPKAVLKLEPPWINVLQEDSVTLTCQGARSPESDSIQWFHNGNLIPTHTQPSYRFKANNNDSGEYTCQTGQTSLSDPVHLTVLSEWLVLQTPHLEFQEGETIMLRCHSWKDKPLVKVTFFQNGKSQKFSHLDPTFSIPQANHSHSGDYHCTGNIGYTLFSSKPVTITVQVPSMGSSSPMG

[2] = molecular target: T2, human FcγRIIIaV extracellular domain, His-tagged (human, UniProt P08637 17-208); experiment: as above
T2 construct: also called human FcgRIIIaV
T2 sequence (P08637 17-208 F176V): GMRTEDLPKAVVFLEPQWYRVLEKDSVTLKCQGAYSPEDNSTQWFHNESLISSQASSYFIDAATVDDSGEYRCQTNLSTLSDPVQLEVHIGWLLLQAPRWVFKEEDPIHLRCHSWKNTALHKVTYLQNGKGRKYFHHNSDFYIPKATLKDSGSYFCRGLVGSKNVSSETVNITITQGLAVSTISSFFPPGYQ

[3] = molecular target: T3, cynomolgus monkey FcγRIIIaS extracellular domain with C-terminal His-tag (cynomolgus monkey, UniProt A3RFZ7 21-206 (rhesus entry)); experiment: SPR (BIACORE); KD of SG1 / KD of variant
T3 construct: also called cyno FcgRIIIaS; cynoFcγRIIIaS; not shown: His-tag added to the C-terminus
Protocol: (§1) The kinetic analysis of interactions between these antibodies and FcγR was carried out using BIACORE® T200 or BIACORE® 4000 (GE Healthcare). HBS-EP+ (GE Healthcare) was used as the running buffer, and the measurement temperature was set to 25° C. […] After the measurement, the antibody captured on the chip was washed off by allowing reaction with 10 mM glycine-HCl, pH1.5 and 25 mM NaOH so that the chip was regenerated and used repeatedly. The sensorgrams obtained as measurement results were analyzed by the 1:1 Langmuir binding model using the BIACORE® Evaluation Software to calculate the binding rate constant ka (L/mol/s) and dissociation rate constant kd (1/s), and the dissociation constant KD (mol/L) was calculated from these values. […] Regarding such interactions, KD values were calculated using the following 1:1 binding model described in BIACORE® T100 Software Handbook BR1006-48 Edition AE.

[4] = molecular target: T3, cynomolgus monkey FcγRIIIaS …; experiment: SPR (BIACORE), antibody captured, FcgR analyte
Protocol: as §1

[5] = molecular target: T4, cynomolgus monkey FcγRIIIaS extracellular domain with C-terminal His-tag (cynomolgus monkey, UniProt Q8SPW2 21-206 at identity 1.00)); experiment: SPR, KD(parent SG1)/KD(variant)
T4 construct: also called cyno FcgRIIIaS; cynoFcγRIIIaS
T4 chain: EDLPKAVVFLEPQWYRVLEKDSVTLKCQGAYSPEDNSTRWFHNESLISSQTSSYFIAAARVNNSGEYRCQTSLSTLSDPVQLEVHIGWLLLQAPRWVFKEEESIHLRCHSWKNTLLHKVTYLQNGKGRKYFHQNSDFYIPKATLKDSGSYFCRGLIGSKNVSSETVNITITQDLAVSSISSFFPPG

[6] = molecular target: T5, human FcγRIIaR extracellular domain with C-terminal His-tag (human, UniProt P12318 34-217); experiment: SPR (BIACORE), antibody captured, FcgR analyte
T5 construct: also called human FcgRIIaR; FcγRIIa type R; not shown: His-tag added to the C-terminus
T5 chain: T1 sequence with H134R
Protocol: as §1

[7] = molecular target: T6, cynomolgus monkey FcγRIIa3 extracellular domain with C-terminal His-tag (cynomolgus monkey); experiment: SPR (BIACORE), antibody captured, FcgR analyte
T6 construct: also called cyno FcgRIIa3; cynoFcγRIIa3; not shown: His-tag added to the C-terminus
T6 chain: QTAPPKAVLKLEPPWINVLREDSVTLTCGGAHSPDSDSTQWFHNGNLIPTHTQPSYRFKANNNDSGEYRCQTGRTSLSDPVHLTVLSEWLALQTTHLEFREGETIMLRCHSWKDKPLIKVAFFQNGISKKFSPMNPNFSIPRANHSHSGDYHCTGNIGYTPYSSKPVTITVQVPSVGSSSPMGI
Protocol: as §1

[8] = molecular target: T7, human FcγRIIb extracellular domain with C-terminal His-tag (human, UniProt P31994 43-217); experiment: SPR Biacore, antibody captured, FcgR analyte
T7 construct: also called human FcgRIIb; not shown: His-tag added to C-terminus
T7 sequence: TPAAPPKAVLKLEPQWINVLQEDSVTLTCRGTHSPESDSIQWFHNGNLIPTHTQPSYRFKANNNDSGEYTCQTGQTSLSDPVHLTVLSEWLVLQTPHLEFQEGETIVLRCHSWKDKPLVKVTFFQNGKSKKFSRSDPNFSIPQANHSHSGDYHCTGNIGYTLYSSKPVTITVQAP
Protocol: as §1

[9] = molecular target: T8, cynomolgus monkey FcγRIIIaS extracellular domain with C-terminal His-tag (cynomolgus monkey, UniProt A3RFZ7 21-206 (rhesus entry)); experiment: SPR Biacore, antibody captured, FcgR analyte
T8 construct: also called cyno FcgRIIIaS; cynoFcγRIIIaS; not shown: His-tag added to C-terminus
Protocol: as §1

[10] = molecular target: T9, cynomolgus monkey FcγRIIa3 extracellular domain with C-terminal His-tag (cynomolgus monkey); experiment: SPR Biacore, antibody captured, FcgR analyte
T9 construct: also called cyno FcgRIIa3; cynoFcγRIIa3; not shown: His-tag added to C-terminus
T9 chain: T6 chain
Protocol: as §1

[11] = molecular target: T10, cynomolgus monkey FcγRIIb extracellular domain with C-terminal His-tag (cynomolgus monkey); experiment: SPR Biacore, antibody captured, FcgR analyte
T10 construct: also called cyno FcgRIIb; cynoFcγRIIb; not shown: His-tag added to C-terminus
T10 chain: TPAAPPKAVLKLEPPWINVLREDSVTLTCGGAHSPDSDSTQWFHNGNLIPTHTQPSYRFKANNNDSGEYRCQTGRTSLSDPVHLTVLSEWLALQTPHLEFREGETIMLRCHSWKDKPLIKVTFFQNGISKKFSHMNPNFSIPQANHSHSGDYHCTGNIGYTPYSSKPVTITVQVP
Protocol: as §1

B1: GpH7-B3 G237Y / GpL16-k0 (antibody, human IgG1, kappa)
heavy: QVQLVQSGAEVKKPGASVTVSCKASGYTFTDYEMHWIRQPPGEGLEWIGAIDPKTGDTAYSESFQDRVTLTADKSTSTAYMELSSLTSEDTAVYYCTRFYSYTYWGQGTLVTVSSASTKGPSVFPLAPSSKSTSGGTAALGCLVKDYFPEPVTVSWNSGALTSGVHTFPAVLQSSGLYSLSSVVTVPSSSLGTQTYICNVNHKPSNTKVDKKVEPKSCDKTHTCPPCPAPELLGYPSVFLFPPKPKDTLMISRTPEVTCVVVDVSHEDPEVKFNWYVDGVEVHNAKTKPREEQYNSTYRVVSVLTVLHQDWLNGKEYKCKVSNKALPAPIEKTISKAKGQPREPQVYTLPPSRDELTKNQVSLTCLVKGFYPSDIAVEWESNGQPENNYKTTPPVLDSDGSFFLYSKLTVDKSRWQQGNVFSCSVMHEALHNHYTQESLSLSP
light: DIVMTQSPLSLPVTPGEPASISCQASESLVHSNRNTYLHWYLQKPGQSPQLLIYKVSNRFSGVPDRFSGSGSGTDFTLKISRVEAEDVGVYYCSQNTHVPPTFGQGTKVEIERTVAAPSVFIFPPSDEQLKSGTASVVCLLNNFYPREAKVQWKVDNALQSGNSQESVTEQDSKDSTYSLSSTLTLSKADYEKHKVYACEVTHQGLSSPVTKSFNRGEC
notes: also called B3 variant G237Y
Binding to human FcgRs (parent B3 = 100) [1]: 77
Binding to human FcgRs (parent B3 = 100) [2]: 0

B2: GpH7-B3 N325I / GpL16-k0 (antibody, human IgG1, kappa)
heavy: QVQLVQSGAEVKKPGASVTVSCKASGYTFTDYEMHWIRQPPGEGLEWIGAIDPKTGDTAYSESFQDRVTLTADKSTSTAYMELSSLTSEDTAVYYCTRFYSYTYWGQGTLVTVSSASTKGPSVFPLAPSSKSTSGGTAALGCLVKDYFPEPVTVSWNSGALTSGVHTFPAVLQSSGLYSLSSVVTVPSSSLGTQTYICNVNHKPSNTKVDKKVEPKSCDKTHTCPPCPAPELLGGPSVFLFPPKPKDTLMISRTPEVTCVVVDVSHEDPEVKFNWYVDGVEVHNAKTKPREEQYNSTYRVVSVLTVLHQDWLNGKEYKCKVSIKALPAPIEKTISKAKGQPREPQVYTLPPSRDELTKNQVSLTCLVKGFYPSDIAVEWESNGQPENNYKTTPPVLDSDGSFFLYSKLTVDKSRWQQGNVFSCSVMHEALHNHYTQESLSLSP
light: B1 light
notes: also called B3 variant N325I
Binding to human FcgRs (parent B3 = 100) [1]: 76
Binding to human FcgRs (parent B3 = 100) [2]: 1

B3: GpH7-B3 P238M / GpL16-k0 (antibody, human IgG1, kappa)
heavy: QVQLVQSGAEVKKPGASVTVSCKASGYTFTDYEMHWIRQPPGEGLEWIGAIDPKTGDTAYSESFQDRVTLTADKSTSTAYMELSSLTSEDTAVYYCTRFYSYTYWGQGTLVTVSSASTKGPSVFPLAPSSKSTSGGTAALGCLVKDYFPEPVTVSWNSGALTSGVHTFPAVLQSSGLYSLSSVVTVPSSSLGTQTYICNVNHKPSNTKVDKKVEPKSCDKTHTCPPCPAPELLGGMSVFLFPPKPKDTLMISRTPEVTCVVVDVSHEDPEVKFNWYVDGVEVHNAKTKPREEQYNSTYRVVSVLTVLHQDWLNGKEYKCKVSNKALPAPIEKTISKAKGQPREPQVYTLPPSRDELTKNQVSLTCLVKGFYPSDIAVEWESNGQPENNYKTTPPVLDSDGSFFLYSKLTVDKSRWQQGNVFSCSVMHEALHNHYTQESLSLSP
light: B1 light
notes: also called B3 variant P238M
Binding to human FcgRs (parent B3 = 100) [1]: 86
Binding to human FcgRs (parent B3 = 100) [2]: 2

B4: M103205H795-MY001/M103202L889-SK1 (antibody, human IgG1, kappa, name in EU numbering)
heavy: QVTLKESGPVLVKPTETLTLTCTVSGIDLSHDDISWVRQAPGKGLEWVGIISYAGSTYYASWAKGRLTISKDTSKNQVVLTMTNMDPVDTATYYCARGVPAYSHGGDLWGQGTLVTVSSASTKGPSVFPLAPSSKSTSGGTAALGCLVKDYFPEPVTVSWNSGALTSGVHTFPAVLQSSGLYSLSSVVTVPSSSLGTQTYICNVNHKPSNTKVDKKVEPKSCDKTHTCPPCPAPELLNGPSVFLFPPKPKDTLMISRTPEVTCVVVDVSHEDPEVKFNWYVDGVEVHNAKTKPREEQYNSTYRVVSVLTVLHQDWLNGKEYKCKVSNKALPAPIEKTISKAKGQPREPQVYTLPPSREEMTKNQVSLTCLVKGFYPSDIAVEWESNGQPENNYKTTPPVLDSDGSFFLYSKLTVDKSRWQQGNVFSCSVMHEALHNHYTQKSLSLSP
light: DIVMTQSPATLSLSPGERATLSCTSSQSVYHANWLSWFQQKPGQPPKLLIYWASTLAYGVPSRFSGSGSGTDFTLTISSLQPEDAATYYCAGGYGGGRYAFGQGTKVEIKRTVAAPSVFIFPPSDEQLKSGTASVVCLLNNFYPREAKVQWKVDNALQSGNSQESVTEQDSKDSTYSLSSTLTLSKADYEKHKVYACEVTHQGLSSPVTKSFNRGEC
notes: Fc variant of MS1032LO06-SG1; positions in EU numbering
KD fold (SG1 = 1) [3]: 0.05 fold
Kd [4]: 32 µM

B5: MS1032LO19-SG1 (antibody, human IgG1, kappa)
heavy: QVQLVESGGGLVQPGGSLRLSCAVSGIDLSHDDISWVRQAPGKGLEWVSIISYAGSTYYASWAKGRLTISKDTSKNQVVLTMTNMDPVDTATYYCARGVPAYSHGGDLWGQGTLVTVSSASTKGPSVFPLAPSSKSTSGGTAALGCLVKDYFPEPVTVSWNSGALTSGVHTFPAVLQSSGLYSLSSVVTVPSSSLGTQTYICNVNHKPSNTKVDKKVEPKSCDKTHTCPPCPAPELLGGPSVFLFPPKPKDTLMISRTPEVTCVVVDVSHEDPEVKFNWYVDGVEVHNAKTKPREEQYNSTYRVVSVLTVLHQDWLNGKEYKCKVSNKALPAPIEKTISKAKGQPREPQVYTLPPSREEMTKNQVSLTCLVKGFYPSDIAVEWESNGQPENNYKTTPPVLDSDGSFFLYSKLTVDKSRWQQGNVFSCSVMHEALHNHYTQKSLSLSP
light: B4 light with S25T, A32E
notes: tied to rows r13/r31 by row order only; also called MS103240H795-SG1; copies: 2 + 2
KD fold (SG1 = 1) [5]: 1 fold

B6: M103205H795-MY440/M103202L889-SK1 (antibody, human IgG1, kappa, name in EU numbering)
heavy: QVTLKESGPVLVKPTETLTLTCTVSGIDLSHDDISWVRQAPGKGLEWVGIISYAGSTYYASWAKGRLTISKDTSKNQVVLTMTNMDPVDTATYYCARGVPAYSHGGDLWGQGTLVTVSSASTKGPSVFPLAPSSKSTSGGTAALGCLVKDYFPEPVTVSWNSGALTSGVHTFPAVLQSSGLYSLSSVVTVPSSSLGTQTYICNVNHKPSNTKVDKKVEPKSCDKTHTCPPCPAPELWNGPSVFLFPPKPKDTLMISRTPEVTCVVVDVSDEDPEVKFNWYVDGVEVHNAKTKPREELYNSTYRVVSVLTVLHQDWLNGKEYKCKVSNKALPKPIEKTISKAKGQPREPQVYTLPPSREEMTKNQVSLTCLVKGFYPSDIAVEWESNGQPENNYKTTPPVLDSDGSFFLYSKLTVDKSRWQQGNVFSCSVMHEALHNHYTQKSLSLSP
light: B4 light
notes: as for B4
Kd [6]: 1.1 µM
Kd [7]: 4.8 µM
Kd [4]: 9.3 µM

B7: M103205H795-MY200/M103202L889-SK1 (antibody)
heavy: B6 heavy with W237L, S241V, D270E, L297Q
light: B4 light
notes: Fc variant of MS1032LO06-SG1; EU numbering; printed S2369V is probably S239V
Kd [6]: 2.7 µM
Kd [4]: 4.4 µM

B8: MS1032LO19-SG1077 (antibody, name in EU numbering)
heavy: QVQLVESGGGLVQPGGSLRLSCAVSGIDLSHDDISWVRQAPGKGLEWVSIISYAGSTYYASWAKGRLTISKDTSKNQVVLTMTNMDPVDTATYYCARGVPAYSHGGDLWGQGTLVTVSSASTKGPSVFPLAPSSKSTSGGTAALGCLVKDYFPEPVTVSWNSGALTSGVHTFPAVLQSSGLYSLSSVVTVPSSSLGTQTYICNVNHKPSNTKVDKKVEPKSCDKTHTCPPCPAPELWNGPSVFLFPPKPKDTLMISRTPEVTCVVVDVSDEDPEVKFNWYVDGVEVHNAKTKPREELYNSTYRVVSVLTVLHRDWLNGKEYKCKVSNTALPKPIEKTISKAKGQRREPQVYTLPPSREEMTKNQVSLTCLVKGFYPSDIAVEWESNGQPENNYKTTPPVLDSDGSFFLYSKLTVDKSRWQQGNVFSCSVLHEALHAHTTRKELSLSP
light: B4 light with S25T, A32E
notes: tied to rows r16/r34 by row order only; also called MS103240H795-SG1077
KD fold (SG1 = 1) [5]: 0.09 fold

B9: M103205H795-MY049/M103202L889-SK1 (antibody, human IgG1, kappa, name in EU numbering)
heavy: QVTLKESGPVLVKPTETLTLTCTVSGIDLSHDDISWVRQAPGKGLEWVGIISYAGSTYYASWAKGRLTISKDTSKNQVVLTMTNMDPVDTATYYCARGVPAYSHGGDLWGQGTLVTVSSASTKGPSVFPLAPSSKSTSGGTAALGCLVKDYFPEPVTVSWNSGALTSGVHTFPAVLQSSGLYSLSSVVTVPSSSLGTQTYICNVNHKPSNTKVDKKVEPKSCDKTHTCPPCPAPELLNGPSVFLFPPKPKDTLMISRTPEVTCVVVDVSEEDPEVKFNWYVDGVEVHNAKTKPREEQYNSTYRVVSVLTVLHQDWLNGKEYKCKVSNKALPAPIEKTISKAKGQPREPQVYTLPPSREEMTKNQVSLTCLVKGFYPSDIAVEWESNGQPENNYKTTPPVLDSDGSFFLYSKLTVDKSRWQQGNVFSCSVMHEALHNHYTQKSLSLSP
light: B4 light
notes: as for B4
KD fold (SG1 = 1) [3]: 0.08 fold
Kd [6]: 7.8 µM
Kd [4]: 4.5 µM

B10: M103205H795-MY181/M103202L889-SK1 (antibody, human IgG1, kappa, name in EU numbering)
heavy: B6 heavy with W237L, D270E, L297Q, K332A, P398T
light: B4 light
notes: EU numbering
Kd [8]: 1.4 µM
KD fold (SG1 = 1) [9]: 0.09 fold
Kd [9]: 4.1 µM
KD fold (SG1 = 1) [10]: 1.1 fold

B11: MS1032LO19-SG1081 (antibody, name in EU numbering)
heavy: B8 heavy with L430M, T438Y
light: B4 light with S25T, A32E
notes: tied to rows r19/r37 by row order only; also called MS103240H795-SG1081
KD fold (SG1 = 1) [5]: 0.09 fold

B12: M103205H795-MY350/M103202L889-SK1 (antibody, human IgG1, kappa, name in EU numbering)
heavy: B6 heavy with D270E, L297Q, P398M
light: B4 light
notes: substitutions in EU numbering, introduced into M103205H795-SG1
KD fold (SG1 = 1) [9]: 0.05 fold
KD fold (SG1 = 1) [11]: 3.2 fold

From patent publication US20250076311A1 (Chugai, published 2025)
